One may read the IC50 as the concentration at which inhibition is half-maximal. By Kd is commonly meant the constant that tells how readily two partners part at equilibrium.

These results are taken from patent US20130123347, “FRACTALKINE BINDING POLYNUCLEOTIDES AND METHODS OF USE” (published 2013).

The chains are these.
B1: 5',3' 10T FKN-S2 Aptamer (ssDNA)
DNA: TTTTTTTTTTGGGGTGGGTGGGGGGCACGTGTGGGGGCGGCCAGGGTGCTTTTTTTTTTT

T1 sequence (P78423 25-339, one chain of several): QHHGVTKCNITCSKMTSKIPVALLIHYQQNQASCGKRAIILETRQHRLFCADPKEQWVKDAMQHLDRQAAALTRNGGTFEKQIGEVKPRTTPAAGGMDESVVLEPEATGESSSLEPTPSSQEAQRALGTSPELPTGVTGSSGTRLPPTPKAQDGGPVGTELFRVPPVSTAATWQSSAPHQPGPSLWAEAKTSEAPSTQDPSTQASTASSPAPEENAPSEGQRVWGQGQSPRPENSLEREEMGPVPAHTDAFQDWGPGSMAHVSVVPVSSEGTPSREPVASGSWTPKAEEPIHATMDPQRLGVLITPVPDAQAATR
Chain of CCL8 (P80075 24-99, one chain of several): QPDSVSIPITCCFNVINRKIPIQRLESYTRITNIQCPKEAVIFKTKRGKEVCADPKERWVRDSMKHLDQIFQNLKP

The first data set has as its target T1, fractalkine (CX3CL1) (Homo sapiens, UniProt P78423 P78423:25-339). Kind of data set: filter; 1-10 nM aptamer; PBS pH 7.4, BSA, poly dA:dT. The note with it: tags: C-terminal polyhistidine; chemokine domain + mucin-like stalk; R&D Systems 365-FR-025; label: 32P. How it is done:
Anti-fractalkine Antibody Blocking Assay. Unlabeled FKN-S2 and scrambled FKN-S2 aptamer (sequence 5′-[…] […], SEQ ID NO:7) were diluted to 10 nM in binding buffer (PBS with 50 μg/mL BSA and 2.5 μg/mL Poly (dA:dT); pH 7.4). Approximately 75,000 cpm/well of radio-labeled aptamer was added and the samples were diluted to 5 and 1 nM. Each dilution was heat denatured and snap cooled. Full length fractalkine was diluted to 0.25 nM and approximately 100 nM of anti-chemokine domain antibody (FKN Ab) was added and allowed to bind for 30 minutes at room temperature. The aptamer was added to the protein solution and incubated at room temperature for 30 minutes. Bound aptamer was collected by filtering the samples thorough at nitrocellulose membrane and signal captured with a phosphor film and imaged. The background binding signal was removed from the FKN and FKN Ab+FKN samples by subtracting the signal from a well containing an identical concentration of BSA without FKN or FKN Ab. Binding was quantified using ImageJ.
With GTTGGGATGAGGGTGGGCGGGCGCGGCGGCTGGGGGTCGG (ssDNA) [scrambled FKN-S2], the binding result is “no binding”.

A further data set has as its target T2, CXCL16 (UniProt Q9H2A7 Q9H2A7:30-118).
T2 sequence: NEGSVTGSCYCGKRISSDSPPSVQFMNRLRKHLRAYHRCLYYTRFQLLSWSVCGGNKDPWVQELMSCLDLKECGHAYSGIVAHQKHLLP
Put plainly: filter; 0.2 nM protein; PBS pH 7.4, room temp. The note with it: tags: PeproTech 300-55; label: 5' 32P; parallel G-quartet and B-form features by CD. How it is done:
(§1) FKN-S2 was labeled with γ-³²P ATP using a T4 polynucleotide kinase as described in the FKN-S2 Aptamer Homologous Competitive Binding Assay section. Unlabeled FKN-S2 aptamer and 10⁶ counts per minute of radiolabeled FKN-S2 aptamer were mixed in binding buffer (PBS with 50 μg/mL BSA and 2.5 μg/mL Poly (dA:dT); pH 7.4) and the aptamer was denatured at 95° C. for 5 minutes followed by snap cooling in ice water for 5 minutes. The aptamer was then serial diluted in binding buffer and the dilutions added to full length fractalkine, heat-denatured fractalkine and chemokines CCL8 (PeproTech Catalog Number 300-15) and CXCL16 (PeproTech Catalog Number 300-55). All proteins were at a concentration of 0.2 nM. Fractalkine was denatured by heating to 95° C. for 10 minutes followed by incubation on ice until use. The aptamer and protein were incubated for 1 hour at room temperature. Bound aptamer was collected by filtering the samples thorough at nitrocellulose membrane and signal captured with a phosphor film and imaged. The background was measured from wells containing an identical concentration of BSA without the protein. Binding was quantified using ImageJ. […] The binding that was seen may be due to incomplete denaturing or refolding of fractalkine during the experiment.
On to GGGGTGGGTGGGGGGCACGTGTGGGGGCGGCCAGGGTGCT (ssDNA) [FKN-S2], for which the binding result was “no binding”.

The target in another data set is CCL8 (UniProt P80075 P80075:24-99). Kind of data set: filter; 0.2 nM protein; PBS pH 7.4, room temp. The note with it: tags: PeproTech 300-15; label: 5' 32P; parallel G-quartet and B-form features by CD. The procedure:
as §1
For the molecule GGGGTGGGTGGGGGGCACGTGTGGGGGCGGCCAGGGTGCT (ssDNA) [FKN-S2], the binding result is “no binding”.

Another data set concerns the target T1, fractalkine (CX3CL1). Put plainly: competition; vs radiolabeled FKN-S2. To be noted: tags: C-terminal polyhistidine; chemokine domain + mucin-like stalk; R&D Systems 365-FR-025. How it is done:
FKN-S2 contains 40 nucleotides and we investigated if truncation of the aptamer would result in sequences with similar affinity to fractalkine but with fewer nucleotides. Three truncated versions of the FKN-S2 aptamer were synthesized with five nucleotides removed from the 5′ end (FKN-S2a), five from the 3′ end (FKN-S2b) and five from each end (FKN-S2c). Additionally, a random 40-mer (5′-[…] (SEQ ID NO:4)) was used as a control. The relative affinities of the truncated aptamers were tested using a heterogeneous competition assay with radiolabeled full length FKN-S2 (FIG. 4). IC₅₀ values (the concentration of 50% reduction in binding) were determined by non-linear regression fitting of the data to the binding equation given in herein and the values are shown in Table 1.
Truncated FKN-S2 Aptamer Competitive Binding Assay. […] 1 nM of unlabeled FKN-S2 and 5,000 cpm/μL (counts per minute/μL) of radio-labeled full length FKN-S2 were heat denatured and snap cooled before addition to either fractalkine or a BSA control at a concentration of 0.1 nM and incubated for 1 hour at room temperature. The solutions were filtered through a nitrocellulose membrane and exposed to a storage phosphor film overnight and imaged. The binding was quantified using ImageJ and the Dot Blot Analyzer plug-in. Data was fit using the non-linear regression program Origin 8 to the equation
For the molecule GGGTGGGGGGCACGTGTGGGGGCGGCCAGG (ssDNA) [FKN-S2c], the IC50 is over 100000 nM.

As to CTATCGGCGACATGAACTTTGGCAAGGGCATCTGGTCCAT (ssDNA) [random 40-mer], the IC50 was over 100000 nM.

Take GGGGTGGGTGGGGGGCACGTGTGGGGGCGGCCAGG (ssDNA) [FKN-S2b]: the half-maximal inhibitory concentration (IC50) came to 5410 nM.

In a further data set the target is T1, fractalkine (CX3CL1). Kind of data set: competition; vs radiolabeled FKN-S2, filter binding, PBS pH 7.4; Table 2 gives 8.6±0.3 nM (n=9). The note with it: tags: C-terminal polyhistidine; chemokine domain + mucin-like stalk; R&D Systems 365-FR-025; label: 5' 32P; parallel G-quartet and B-form features by CD.
As for GGGGTGGGTGGGGGGCACGTGTGGGGGCGGCCAGGGTGCT (ssDNA) [FKN-S2], the IC50 worked out at 9.5 nM.

A further data set has as its target T1, fractalkine (CX3CL1). Put plainly: competition; vs radiolabeled FKN-S2, 0.1 nM FKN, PBS. To be noted: tags: C-terminal polyhistidine; chemokine domain + mucin-like stalk; R&D Systems 365-FR-025. How it is done: (§2) IC₅₀ Binding Assay. FKN-S2 aptamer was labeled on the 5′ end with a radioactive phosphorous (³²P) using a T4 kinase. Unlabeled aptamer amphiphile was serially diluted in binding buffer composed of PBS with BSA, Poly(dA:dT) and radio-labeled FKN-S2 (generally less than 0.05 nM; ≈20,000 count per minute per well) and unlabeled FKN-S2 (1 nM). This ensured each aptamer dilution contained an identical concentration of FKN-S2. Fractalkine (0.1 nM) or BSA was added to each dilution and the aptamer was allowed to bind for 1 hour at room temperature. Each solution was then filtered though a nitrocellulose membrane where the fractalkine:aptamer complex was captured and non-bound aptamer was removed by washing the membrane three times with PBS. The membrane was then exposed to a phosphor film overnight and imaged. The binding was quantified using imageJ and the data fit to a binding equation to determine the IC₅₀.
Effect of the Spacer on Binding Affinity. […] Radiolabeled FKN-S2 aptamer and unlabeled aptamer-amphiphile were incubated with fractalkine for 1 hour and the aptamer:fractalkine complex collected by filtration through a nitrocellulose membrane. The concentration at which 50% of the aptamer is displaced by the unlabeled competitor is the IC₅₀ value.
Regarding TTTTTTTTTTGGGGTGGGTGGGGGGCACGTGTGGGGGCGGCCAGGGTGCT (ssDNA, 5' C16 dialkyl tail) [5' 10T FKN-S2 Amphiphile], the IC50 was determined as 55.1 nM.

GGGGTGGGTGGGGGGCACGTGTGGGGGCGGCCAGGGTGCTTTTTTTTTTT (ssDNA, 3' C16 dialkyl tail) [3' 10T FKN-S2 Amphiphile]: the IC50 was 21.8 nM.

Take GGGGTGGGTGGGGGGCACGTGTGGGGGCGGCCAGGGTGCTTTTTT (ssDNA, 3' C16 dialkyl tail) [3' 5T FKN-S2 Amphiphile]: the IC50 is 37.6 nM.

For the molecule GGGGTGGGTGGGGGGCACGTGTGGGGGCGGCCAGGGTGCT (ssDNA, 3' C24 spacer + C16 dialkyl tail) [3' C24 FKN-S2 Amphiphile], the IC50 stood at 73.5 nM.

On to GGGGTGGGTGGGGGGCACGTGTGGGGGCGGCCAGGGTGCT (ssDNA, 5' C6 amino-linked C16 dialkyl tail) [5' No Spacer FKN-S2 Amphiphile], for which the IC50 came out at 81.6 nM.

Turning to GGGGTGGGTGGGGGGCACGTGTGGGGGCGGCCAGGGTGCT (ssDNA, 3' PEG8 spacer + C16 dialkyl tail) [3' PEG8 FKN-S2 Amphiphile], the IC50 worked out at 47.5 nM.

On to GGGGTGGGTGGGGGGCACGTGTGGGGGCGGCCAGGGTGCT (ssDNA, 3' C6 amino-linked C16 dialkyl tail) [3' No Spacer FKN-S2 Amphiphile], for which the IC50 was found to be 65.7 nM.

As for GGGGTGGGTGGGGGGCACGTGTGGGGGCGGCCAGGGTGCT (ssDNA, 3' PEG24 spacer + C16 dialkyl tail) [3' PEG24 FKN-S2 Amphiphile], the IC50 was 49.6 nM.

As for GGGGTGGGTGGGGGGCACGTGTGGGGGCGGCCAGGGTGCT (ssDNA, 3' PEG4 spacer + C16 dialkyl tail) [3' PEG4 FKN-S2 Amphiphile], the IC50 was found to be 68.6 nM.

For GGGGTGGGTGGGGGGCACGTGTGGGGGCGGCCAGGGTGCT (ssDNA, 3' C12 spacer + C16 dialkyl tail) [3' C12 FKN-S2 Amphiphile], the IC50 turned out to be 75.6 nM.

In the case of GGGGTGGGTGGGGGGCACGTGTGGGGGCGGCCAGGGTGCTAAAAAAAAAA (ssDNA, 3' C16 dialkyl tail) [3' 10A FKN-S2 Amphiphile], the IC50 was found to be 24.8 nM.

In another data set the target is T1, fractalkine (CX3CL1). Put plainly: competition; vs radiolabeled FKN-S2. The note with it: tags: C-terminal polyhistidine; chemokine domain + mucin-like stalk; R&D Systems 365-FR-025. This is another data set of the same source. How it is done: as §2
We hypothesized that the improvement in affinity of the 3′ 10T FKN-S2 amphiphile may be due either to a spacer effect, where the spacer increases the distance between the aptamer and the tail, or due to an improvement in the affinity of the aptamer itself. To investigate the effect of the 10T spacer on the aptamer affinity, we measured the IC₅₀ values of the FKN-S2 aptamer with different nucleotide spacers (Table 3).
For the molecule TTTTTTTTTTGGGGTGGGTGGGGGGCACGTGTGGGGGCGGCCAGGGTGCT (ssDNA) [5' 10T FKN-S2 Aptamer], the IC50 was 8.7 nM.

Regarding GGGGTGGGTGGGGGGCACGTGTGGGGGCGGCCAGGGTGCTT (ssDNA) [3' 1T FKN-S2 Aptamer], the IC50 came out at 9.2 nM.

B1: the IC50 is 2.7 nM.

For the molecule GGGGTGGGTGGGGGGCACGTGTGGGGGCGGCCAGGGTGCTTTTTTTTTTT (ssDNA) [3' 10T FKN-S2 Aptamer], the IC50 is 3.6 nM.

As for GGGGTGGGTGGGGGGCACGTGTGGGGGCGGCCAGGGTGCTTTTTT (ssDNA) [3' 5T FKN-S2 Aptamer], the IC50 worked out at 3.4 nM.

For the next data set, the target named is T1, fractalkine (CX3CL1). Put plainly: filter; homologous competition; 25 pM FKN, PBS pH 7.4, poly dA:dT, BSA, room temp. The note with it: tags: C-terminal polyhistidine; chemokine domain + mucin-like stalk; R&D Systems 365-FR-025; label: 5' 32P; parallel G-quartet and B-form features by CD. How it is done: The dissociation constant of FKN-S2 for fractalkine was determined using a radioactive homologous competition filter binding assay. Dilutions of unlabeled FKN-S2 aptamer were mixed with a constant concentration of ³²P ATP labeled FKN-S2. The dilutions were then incubated with 25 pM fractalkine for 1 hour at room temperature. […] Bound aptamer was collected by filtration through a nitrocellulose membrane and the dissociation constant determined by non-linear regression analysis.
All binding experiments occurred in binding buffer composed of PBS with 0.5 μg/mL poly dA:dT and 50 μg/mL bovine serum albumin (BSA), pH 7.4. Unlabeled full length FKN-S2 aptamer was diluted in binding buffer and a constant concentration of radiolabeled full length FKN-S2 aptamer added to each dilution. Full length fractalkine or an equivalent concentration of BSA was diluted in binding buffer to 50 pM. Aptamer and fractalkine/BSA was incubated for 1 hour at room temperature. Following incubation, samples were filtered through a nitrocellulose membrane using a bio-rad dot blot apparatus. Each well was washed 3 times with 200 μL of PBS to remove unbound aptamer. The membrane was dried and exposed to a storage phosphor screen overnight and imaged (Packard Cyclone). Binding was quantified using ImageJ and the Dot Blot Analyzer plug-in. The data was fit to the following equation
On to GGGGTGGGTGGGGGGCACGTGTGGGGGCGGCCAGGGTGCT (ssDNA) [FKN-S2], for which the Kd was found to be 3.4 nM.
